Data from publication PMC9482650, “Quantitative fragmentomics allow affinity mapping of interactomes” (Nature Communications, 2022).

What was measured:
Experiment in all cases: holdup assay
Parameters in all cases: key: below the threshold = too weak to quantify, mostly under pKd 3.1 to 4
DLG1_1, Q12959 = target: DLG1_1, Q12959
Inadl_6, Q8NI35 = target: Inadl_6, Q8NI35
GRASP, Q7Z6J2 = target: GRASP, Q7Z6J2
NHERF3_1, Q5T2W1 = target: T1, NHERF3_1, Q5T2W1
T1 sequence (Q5T2W1 4-100, limits assumed, looked up): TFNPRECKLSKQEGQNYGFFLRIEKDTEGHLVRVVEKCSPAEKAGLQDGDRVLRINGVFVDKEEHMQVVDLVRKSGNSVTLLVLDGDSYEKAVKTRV

GRID2IP_1, A4D2P6 = target: GRID2IP_1, A4D2P6
DFNB31_3, Q9P202 = target: T2, DFNB31_3, Q9P202
T2 sequence (Q9P202 811-907, limits assumed, looked up): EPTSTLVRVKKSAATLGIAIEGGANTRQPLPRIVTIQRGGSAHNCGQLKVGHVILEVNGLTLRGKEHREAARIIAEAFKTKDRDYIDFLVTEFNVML

DLG5_1, Q8TDM6 = target: DLG5_1, Q8TDM6
RADIL, Q96JH8 = target: T3, RADIL, Q96JH8
T3 sequence (Q96JH8 971-1071, limits assumed, looked up): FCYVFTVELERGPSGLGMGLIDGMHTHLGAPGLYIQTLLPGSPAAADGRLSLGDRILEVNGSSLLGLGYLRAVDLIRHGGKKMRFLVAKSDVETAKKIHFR

LIN7B, Q9HAP6 = target: T4, LIN7B, Q9HAP6
T4 sequence (Q9HAP6 88-185, limits assumed, looked up): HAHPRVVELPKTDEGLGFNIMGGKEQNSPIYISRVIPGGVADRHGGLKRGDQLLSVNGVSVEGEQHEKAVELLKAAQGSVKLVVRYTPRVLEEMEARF

LDB3, O75112 = target: LDB3, O75112
MAGI2_2, Q86UL8 = target: MAGI2_2, Q86UL8
APBA2_2, Q99767 = target: T5, APBA2_2, Q99767
T5 sequence (Q99767 654-744, limits assumed, looked up): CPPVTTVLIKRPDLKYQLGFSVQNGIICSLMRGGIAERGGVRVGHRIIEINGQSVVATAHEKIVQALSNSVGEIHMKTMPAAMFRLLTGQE

RHPN1, Q8TCX5 = target: T6, RHPN1, Q8TCX5
T6 sequence (Q8TCX5 508-602, limits assumed, looked up): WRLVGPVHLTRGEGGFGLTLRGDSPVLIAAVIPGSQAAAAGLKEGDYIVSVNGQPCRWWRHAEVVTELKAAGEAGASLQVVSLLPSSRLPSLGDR

Inadl_10, Q8NI35 = target: Inadl_10, Q8NI35
TIAM2, Q8IVF5 = target: T7, TIAM2, Q8IVF5
T7 sequence (Q8IVF5 885-986, limits assumed, looked up): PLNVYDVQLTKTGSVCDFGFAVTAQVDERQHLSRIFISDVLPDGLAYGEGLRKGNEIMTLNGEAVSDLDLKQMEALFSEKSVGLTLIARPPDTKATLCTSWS

DLG1_2, Q12959 = target: DLG1_2, Q12959
NHERF4_1, Q86UT5-2 = target: NHERF4_1, Q86UT5-2
PDZRN4_1, Q6ZMN7 = target: PDZRN4_1, Q6ZMN7
ARHGEF12, Q9NZN5-2 = details: plain residues with an end cap or a label only (N-terminal biotin on a linker: ttds)
Inadl_2, Q8NI35 = target: Inadl_2, Q8NI35
NHERF3_3, Q5T2W1 = target: T8, NHERF3_3, Q5T2W1
T8 sequence (Q5T2W1 238-333, limits assumed, looked up): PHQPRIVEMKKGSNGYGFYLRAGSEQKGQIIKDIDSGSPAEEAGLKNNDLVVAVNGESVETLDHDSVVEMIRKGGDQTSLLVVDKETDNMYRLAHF

Inadl_8, Q8NI35 = target: Inadl_8, Q8NI35
PDLIM1, O00151 = target: PDLIM1, O00151
DLG2_2, Q15700 = details: plain residues with an end cap or a label only (N-terminal biotin on a linker: ttds)
MPP2, Q14168 = target: T9, MPP2, Q14168
T9 sequence (Q14168 180-250, limits assumed, looked up): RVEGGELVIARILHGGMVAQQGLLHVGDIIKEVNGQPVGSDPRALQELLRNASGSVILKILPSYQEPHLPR

ARHGAP21, Q5T5U3 = target: T10, ARHGAP21, Q5T5U3
T10 sequence (Q5T5U3 45-169, limits assumed, looked up): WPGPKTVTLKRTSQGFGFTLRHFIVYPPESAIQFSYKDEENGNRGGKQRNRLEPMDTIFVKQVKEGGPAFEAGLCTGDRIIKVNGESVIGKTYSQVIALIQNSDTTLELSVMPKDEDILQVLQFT

GIPC2, Q8TF65 = target: GIPC2, Q8TF65
[1] = plain residues with an end cap or a label only (N-terminal biotin on a linker: ttds)
[2] = plain residues with an end cap or a label only (N-terminal biotin on a linker: ahx)

MAGI2_2, Q86UL8, sequence (Q86UL8 410-522): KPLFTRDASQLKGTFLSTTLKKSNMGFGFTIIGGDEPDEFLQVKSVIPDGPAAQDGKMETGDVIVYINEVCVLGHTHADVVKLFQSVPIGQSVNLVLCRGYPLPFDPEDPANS
NHERF4_1, Q86UT5-2, sequence (Q86UT5 other isoform, or with tags, fused parts or gaps): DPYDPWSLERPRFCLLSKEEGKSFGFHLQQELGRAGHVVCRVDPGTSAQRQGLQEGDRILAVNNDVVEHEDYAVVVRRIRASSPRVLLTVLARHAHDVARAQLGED
Inadl_2, Q8NI35, sequence (Q8NI35 238-335): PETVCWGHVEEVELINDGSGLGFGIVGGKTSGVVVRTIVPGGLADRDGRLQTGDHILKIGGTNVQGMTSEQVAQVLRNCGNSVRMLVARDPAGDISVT
DLG2_2, Q15700, sequence (Q15700 189-283): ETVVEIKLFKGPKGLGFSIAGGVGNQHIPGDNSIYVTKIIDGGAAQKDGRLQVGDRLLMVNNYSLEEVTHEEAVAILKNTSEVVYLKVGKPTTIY
PDLIM1, O00151, sequence (O00151 1-87): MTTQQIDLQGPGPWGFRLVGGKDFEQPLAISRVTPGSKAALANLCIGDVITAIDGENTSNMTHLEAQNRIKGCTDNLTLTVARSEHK
DLG5_1, Q8TDM6, sequence (Q8TDM6 617-713): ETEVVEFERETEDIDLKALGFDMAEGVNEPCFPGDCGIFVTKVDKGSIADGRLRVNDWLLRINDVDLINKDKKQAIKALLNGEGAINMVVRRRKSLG
Inadl_8, Q8NI35, sequence (Q8NI35 1425-1530): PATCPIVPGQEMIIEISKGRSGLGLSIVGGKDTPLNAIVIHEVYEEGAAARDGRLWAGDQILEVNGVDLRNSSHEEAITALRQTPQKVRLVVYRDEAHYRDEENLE
Inadl_10, Q8NI35, sequence (Q8NI35 1673-1763): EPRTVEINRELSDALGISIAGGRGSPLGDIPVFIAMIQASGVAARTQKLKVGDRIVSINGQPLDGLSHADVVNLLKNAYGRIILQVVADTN
GRASP, Q7Z6J2, sequence (Q7Z6J2 96-193): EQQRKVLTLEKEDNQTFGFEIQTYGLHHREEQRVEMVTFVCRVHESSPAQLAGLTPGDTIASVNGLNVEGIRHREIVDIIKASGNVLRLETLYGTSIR
GIPC2, Q8TF65, sequence (Q8TF65 112-203): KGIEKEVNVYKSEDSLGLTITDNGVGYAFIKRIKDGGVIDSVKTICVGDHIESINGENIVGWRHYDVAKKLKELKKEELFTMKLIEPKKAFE
GRID2IP_1, A4D2P6, sequence (A4D2P6 1-87): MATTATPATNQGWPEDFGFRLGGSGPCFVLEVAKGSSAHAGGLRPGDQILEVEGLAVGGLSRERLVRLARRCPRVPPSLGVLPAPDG
LDB3, O75112, sequence (O75112 1-94): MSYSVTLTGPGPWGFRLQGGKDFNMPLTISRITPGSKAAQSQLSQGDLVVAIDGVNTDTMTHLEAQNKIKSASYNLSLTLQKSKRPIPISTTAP
ARHGEF12, Q9NZN5-2, sequence (Q9NZN5 other isoform, or with tags, fused parts or gaps): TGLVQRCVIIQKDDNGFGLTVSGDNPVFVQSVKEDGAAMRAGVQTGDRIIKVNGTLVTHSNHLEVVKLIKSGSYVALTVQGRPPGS
Inadl_6, Q8NI35, sequence (Q8NI35 1058-1167): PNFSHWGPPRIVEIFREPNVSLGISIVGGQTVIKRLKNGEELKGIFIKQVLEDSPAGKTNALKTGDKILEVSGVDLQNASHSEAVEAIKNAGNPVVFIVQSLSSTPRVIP
PDZRN4_1, Q6ZMN7, sequence (Q6ZMN7 213-318): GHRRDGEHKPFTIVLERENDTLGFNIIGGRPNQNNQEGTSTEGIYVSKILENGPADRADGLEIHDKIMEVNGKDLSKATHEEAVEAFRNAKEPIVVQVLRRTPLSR

NDPAWDETNL [ARHGEF7, Q14155;Q14155-1]
pKd (DLG1_1, Q12959; [1]): below the threshold | pKd (Inadl_6, Q8NI35; [1]): 4.09 | pKd (GRASP, Q7Z6J2; [1]): below the threshold | pKd (NHERF3_1, Q5T2W1; [1]): 4.26 | pKd (GRID2IP_1, A4D2P6; [1]): below the threshold | pKd (DFNB31_3, Q9P202; [1]): below the threshold | pKd (DLG5_1, Q8TDM6; [1]): below the threshold | pKd (RADIL, Q96JH8; [1]): below the threshold | pKd (LIN7B, Q9HAP6; [1]): below the threshold | pKd (LDB3, O75112; [1]): below the threshold | pKd (MAGI2_2, Q86UL8; [1]): below the threshold | pKd (APBA2_2, Q99767; [1]): below the threshold | pKd (RHPN1, Q8TCX5; [1]): 4.6 | pKd (Inadl_10, Q8NI35; [1]): below the threshold | pKd (TIAM2, Q8IVF5; [1]): below the threshold | pKd (DLG1_2, Q12959; [1]): below the threshold | pKd (NHERF4_1, Q86UT5-2; [1]): below the threshold | pKd (PDZRN4_1, Q6ZMN7; [1]): 3.98 | pKd (ARHGEF12, Q9NZN5-2): 4.03 | pKd (Inadl_2, Q8NI35; [1]): below the threshold | pKd (NHERF3_3, Q5T2W1; [1]): below the threshold | pKd (Inadl_8, Q8NI35; [1]): below the threshold | pKd (PDLIM1, O00151; [1]): below the threshold | pKd (DLG2_2, Q15700): below the threshold | pKd (MPP2, Q14168; [1]): below the threshold

EMDRRPATVV [PLCB4, Q15147]
pKd (ARHGAP21, Q5T5U3; [1]): 3.64 | pKd (DLG1_1, Q12959; [1]): 4.2 | pKd (GRASP, Q7Z6J2; [1]): 4.01 | pKd (GRID2IP_1, A4D2P6; [1]): below the threshold | pKd (DFNB31_3, Q9P202; [1]): 3.69 | pKd (DLG5_1, Q8TDM6; [1]): below the threshold | pKd (GIPC2, Q8TF65; [1]): 3.48 | pKd (RADIL, Q96JH8; [1]): 3.99 | pKd (LIN7B, Q9HAP6; [1]): below the threshold | pKd (LDB3, O75112; [1]): below the threshold | pKd (MAGI2_2, Q86UL8; [1]): 4.31 | pKd (APBA2_2, Q99767; [1]): below the threshold | pKd (RHPN1, Q8TCX5; [1]): 3.74 | pKd (TIAM2, Q8IVF5; [1]): below the threshold | pKd (NHERF4_1, Q86UT5-2; [1]): below the threshold | pKd (PDZRN4_1, Q6ZMN7; [1]): 3.91 | pKd (ARHGEF12, Q9NZN5-2): 4.53 | pKd (NHERF3_3, Q5T2W1; [1]): below the threshold | pKd (PDLIM1, O00151; [1]): below the threshold | pKd (DLG2_2, Q15700): 4.23 | pKd (MPP2, Q14168; [1]): below the threshold

LSDPSVSTVV [GRIN1, Q05586;Q05586-2]
pKd (ARHGAP21, Q5T5U3; [2]): below the threshold | pKd (DLG1_1, Q12959; [2]): 4.06 | pKd (Inadl_6, Q8NI35; [2]): below the threshold | pKd (GRASP, Q7Z6J2; [2]): 3.94 | pKd (NHERF3_1, Q5T2W1; [2]): below the threshold | pKd (GRID2IP_1, A4D2P6; [2]): below the threshold | pKd (DFNB31_3, Q9P202; [2]): below the threshold | pKd (DLG5_1, Q8TDM6; [2]): below the threshold | pKd (GIPC2, Q8TF65; [2]): below the threshold | pKd (RADIL, Q96JH8; [2]): 3.98 | pKd (LIN7B, Q9HAP6; [2]): below the threshold | pKd (LDB3, O75112; [2]): below the threshold | pKd (MAGI2_2, Q86UL8; [2]): below the threshold | pKd (APBA2_2, Q99767; [2]): below the threshold | pKd (RHPN1, Q8TCX5; [2]): 4.47 | pKd (Inadl_10, Q8NI35; [2]): below the threshold | pKd (TIAM2, Q8IVF5; [2]): below the threshold | pKd (DLG1_2, Q12959; [2]): 4.51 | pKd (NHERF4_1, Q86UT5-2; [2]): below the threshold | pKd (PDZRN4_1, Q6ZMN7; [2]): below the threshold | pKd (Inadl_2, Q8NI35; [2]): below the threshold | pKd (NHERF3_3, Q5T2W1; [2]): below the threshold | pKd (Inadl_8, Q8NI35; [2]): below the threshold | pKd (PDLIM1, O00151; [2]): below the threshold | pKd (MPP2, Q14168; [2]): below the threshold

PRVKPQRSKV [PPP1R13L, Q8WUF5]
pKd (ARHGAP21, Q5T5U3; [1]): below the threshold | pKd (DLG1_1, Q12959; [1]): below the threshold | pKd (Inadl_6, Q8NI35; [1]): below the threshold | pKd (GRASP, Q7Z6J2; [1]): 4.39 | pKd (NHERF3_1, Q5T2W1; [1]): below the threshold | pKd (GRID2IP_1, A4D2P6; [1]): below the threshold | pKd (DFNB31_3, Q9P202; [1]): below the threshold | pKd (DLG5_1, Q8TDM6; [1]): below the threshold | pKd (GIPC2, Q8TF65; [1]): below the threshold | pKd (RADIL, Q96JH8; [1]): below the threshold | pKd (LIN7B, Q9HAP6; [1]): below the threshold | pKd (LDB3, O75112; [1]): below the threshold | pKd (MAGI2_2, Q86UL8; [1]): 3.79 | pKd (APBA2_2, Q99767; [1]): below the threshold | pKd (RHPN1, Q8TCX5; [1]): below the threshold | pKd (Inadl_10, Q8NI35; [1]): below the threshold | pKd (TIAM2, Q8IVF5; [1]): below the threshold | pKd (DLG1_2, Q12959; [1]): below the threshold | pKd (NHERF4_1, Q86UT5-2; [1]): below the threshold | pKd (PDZRN4_1, Q6ZMN7; [1]): below the threshold | pKd (ARHGEF12, Q9NZN5-2): 3.54 | pKd (Inadl_2, Q8NI35; [1]): below the threshold | pKd (NHERF3_3, Q5T2W1; [1]): below the threshold | pKd (Inadl_8, Q8NI35; [1]): 4.35 | pKd (PDLIM1, O00151; [1]): below the threshold | pKd (DLG2_2, Q15700): below the threshold | pKd (MPP2, Q14168; [1]): below the threshold
